Reference: paper PMC12122834

What was measured:
Assay in all cases: EMSA
SSB deltaC1 = SSB deltaC1 (Escherichia coli, UniProt P0AGE0 2-177, del178-178)
DinG = molecular target: T1, DinG (Escherichia coli, UniProt P27296 1-716)
T1 sequence: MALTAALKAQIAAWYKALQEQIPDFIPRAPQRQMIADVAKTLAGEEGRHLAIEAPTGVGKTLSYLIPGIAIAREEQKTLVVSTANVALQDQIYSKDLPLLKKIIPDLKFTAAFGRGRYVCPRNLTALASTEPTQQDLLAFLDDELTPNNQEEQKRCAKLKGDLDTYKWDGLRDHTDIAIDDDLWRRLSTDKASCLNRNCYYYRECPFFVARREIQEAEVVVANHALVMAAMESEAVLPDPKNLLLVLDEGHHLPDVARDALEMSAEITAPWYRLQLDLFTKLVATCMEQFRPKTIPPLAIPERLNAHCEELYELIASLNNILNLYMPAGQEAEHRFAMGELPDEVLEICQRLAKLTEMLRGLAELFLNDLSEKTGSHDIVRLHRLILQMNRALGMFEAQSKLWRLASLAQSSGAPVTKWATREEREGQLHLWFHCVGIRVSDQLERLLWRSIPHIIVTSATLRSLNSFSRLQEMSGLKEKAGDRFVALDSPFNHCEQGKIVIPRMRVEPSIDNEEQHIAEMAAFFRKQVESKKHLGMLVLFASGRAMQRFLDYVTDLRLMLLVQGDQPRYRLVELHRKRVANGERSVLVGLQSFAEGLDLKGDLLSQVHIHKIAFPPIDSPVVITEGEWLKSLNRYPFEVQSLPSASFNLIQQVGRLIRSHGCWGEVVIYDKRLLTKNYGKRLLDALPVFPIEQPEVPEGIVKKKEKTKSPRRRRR

SSB = SSB (Escherichia coli, UniProt P0AGE0 2-178)
YoaA;chi (HolC) = YoaA;chi (HolC) (Escherichia coli;Escherichia coli, UniProt P76257;P28905 1-636;1-147, |)
[1] = molecular target: YoaA;chi R128A (HolC R128A) (Escherichia coli;Escherichia coli, UniProt P76257;P28905 1-636;1-147, |R128A)
YoaA;chi (HolC);SSB = YoaA;chi (HolC);SSB (Escherichia coli;Escherichia …, UniProt P76257;P28905;P0AGE0 1-636;1-147;2-178, ||)
DinG;SSB = DinG;SSB (Escherichia coli;Escherichia coli, UniProt P27296;P0AGE0 1-716;2-178, |)

Measured: binding result

B1: ssT65 (S21) (ssDNA)
DNA: TTTTTTTTTTTTTTTTTTTTTTTTTTTTTTTTTTTTTTTTTTTTTTTTTTTTTTTTTTTTTTTTT
binds: all assays above
